This note sets out measurements from patent publication US20230135471A1, “UBIQUITIN VARIANTS WITH IMPROVED AFFINITY FOR 53BP1” (Integrated DNA Technologies, Inc., priority 2021, published 2023).

This assay deals with 53BP1 fragment (a.a. 1221-1718) fused to an adenylate cyclase fragment (two-hybrid) (UniProt Q12888). Put plainly: cell-based or functional assay.
In the case of “i53 + Q41Y two-hybrid fusion (designed binder)”, the Experiment 1 Average Enrichment amounted to 0.68 log2, the Experiment 1 Rep 1 Enrichment amounted to 0.73 log2, the Experiment 1 Rep 2 Enrichment is 0.64 log2 and the Experiment 2 Average Enrichment stood at 0.47 log2. The substance further registered an Experiment 2 Rep 1 Enrichment of 0.4 log2 and an Experiment 2 Rep 2 Enrichment of 0.53 log2.
As to “i53 + R42C two-hybrid fusion (designed binder)”, the Experiment 1 Average Enrichment amounted to 0.42 log2, the Experiment 1 Rep 1 Enrichment is 0.37 log2, the Experiment 1 Rep 2 Enrichment was found to be 0.47 log2 and the Experiment 2 Average Enrichment came out at 0.28 log2. The Experiment 2 Rep 1 Enrichment amounted to 0.54 log2 and the Experiment 2 Rep 2 Enrichment was 0.01 log2.
In turn, “i53 + R42F two-hybrid fusion (designed binder)” came in with an Experiment 1 Average Enrichment of 1.88 log2, an Experiment 1 Rep 1 Enrichment of 1.99 log2, an Experiment 1 Rep 2 Enrichment of 1.77 log2 and an Experiment 2 Average Enrichment of 1.26 log2. In addition, the Experiment 2 Rep 1 Enrichment came to 1.4 log2 and the Experiment 2 Rep 2 Enrichment stood at 1.13 log2.
In turn, “i53 + R42H two-hybrid fusion (designed binder)” returned an Experiment 1 Average Enrichment of 2.04 log2, an Experiment 1 Rep 1 Enrichment of 2.18 log2, an Experiment 1 Rep 2 Enrichment of 1.89 log2 and an Experiment 2 Average Enrichment of 1.03 log2. This substance also came in with an Experiment 2 Rep 1 Enrichment of 0.89 log2 and an Experiment 2 Rep 2 Enrichment of 1.16 log2.
With “i53 + R42N two-hybrid fusion (designed binder)”, the Experiment 1 Average Enrichment is 1.12 log2, the Experiment 1 Rep 1 Enrichment was found to be 1.18 log2, the Experiment 1 Rep 2 Enrichment came to 1.05 log2 and the Experiment 2 Average Enrichment was 1.01 log2. The substance also gave an Experiment 2 Rep 1 Enrichment of 1.34 log2 and an Experiment 2 Rep 2 Enrichment of 0.68 log2.
As to “i53 + R42S two-hybrid fusion (designed binder)”, the Experiment 1 Average Enrichment is -0.08 log2, the Experiment 1 Rep 1 Enrichment was -0.13 log2, the Experiment 1 Rep 2 Enrichment was -0.02 log2 and the Experiment 2 Average Enrichment was 0.23 log2. This substance came in with an Experiment 2 Rep 1 Enrichment of 0.05 log2 and an Experiment 2 Rep 2 Enrichment of 0.41 log2.
Regarding “i53 + R42Y two-hybrid fusion (designed binder)”, the Experiment 1 Average Enrichment was determined as 1.57 log2, the Experiment 1 Rep 1 Enrichment worked out at 1.44 log2, the Experiment 1 Rep 2 Enrichment amounted to 1.69 log2 and the Experiment 2 Average Enrichment was determined as 1.19 log2. For the same substance, the Experiment 2 Rep 1 Enrichment came to 1.13 log2 and the Experiment 2 Rep 2 Enrichment is 1.26 log2.
Consider “i53 + R54C two-hybrid fusion (designed binder)”, for which the Experiment 1 Average Enrichment was determined as 0.06 log2, the Experiment 1 Rep 1 Enrichment was found to be 0.24 log2, the Experiment 1 Rep 2 Enrichment was -0.12 log2 and the Experiment 2 Average Enrichment is -0.07 log2. Also, the Experiment 2 Rep 1 Enrichment is -0.43 log2 and the Experiment 2 Rep 2 Enrichment came to 0.29 log2.
The substance “i53 + R54F two-hybrid fusion (designed binder)” had an Experiment 1 Average Enrichment of 0.76 log2, an Experiment 1 Rep 1 Enrichment of 1.01 log2, an Experiment 1 Rep 2 Enrichment of 0.52 log2 and an Experiment 2 Average Enrichment of 0.55 log2. This substance also had an Experiment 2 Rep 1 Enrichment of 0.66 log2 and an Experiment 2 Rep 2 Enrichment of 0.43 log2.
As for “i53 + R54H two-hybrid fusion (designed binder)”, the Experiment 1 Average Enrichment came out at 0.87 log2, the Experiment 1 Rep 1 Enrichment worked out at 0.78 log2, the Experiment 1 Rep 2 Enrichment turned out to be 0.96 log2 and the Experiment 2 Average Enrichment came to 0.49 log2. For the same substance, the Experiment 2 Rep 1 Enrichment was 0.43 log2 and the Experiment 2 Rep 2 Enrichment was determined as 0.55 log2.
For the substance “i53 + R54K two-hybrid fusion (designed binder)”, the Experiment 1 Average Enrichment amounted to 0.3 log2, the Experiment 1 Rep 1 Enrichment was 0.07 log2, the Experiment 1 Rep 2 Enrichment turned out to be 0.54 log2 and the Experiment 2 Average Enrichment is -0.22 log2. Moreover, the Experiment 2 Rep 1 Enrichment was -0.16 log2 and the Experiment 2 Rep 2 Enrichment was -0.29 log2.
As for “i53 + R54M two-hybrid fusion (designed binder)”, the Experiment 1 Average Enrichment is 0.85 log2, the Experiment 1 Rep 1 Enrichment came out at 0.82 log2, the Experiment 1 Rep 2 Enrichment was found to be 0.89 log2 and the Experiment 2 Average Enrichment is 0.56 log2. For the same substance, the Experiment 2 Rep 1 Enrichment amounted to 0.56 log2 and the Experiment 2 Rep 2 Enrichment is 0.55 log2.
Consider “i53 + R54N two-hybrid fusion (designed binder)”, for which the Experiment 1 Average Enrichment came to 0.19 log2, the Experiment 1 Rep 1 Enrichment is -0.26 log2, the Experiment 1 Rep 2 Enrichment is 0.65 log2 and the Experiment 2 Average Enrichment amounted to 0.01 log2. For the same substance, the Experiment 2 Rep 1 Enrichment worked out at 0.03 log2 and the Experiment 2 Rep 2 Enrichment was -0.01 log2.
In the case of “i53 + R54Q two-hybrid fusion (designed binder)”, the Experiment 1 Average Enrichment was determined as 0.14 log2, the Experiment 1 Rep 1 Enrichment was -0.05 log2, the Experiment 1 Rep 2 Enrichment is 0.32 log2 and the Experiment 2 Average Enrichment is -0.02 log2. The Experiment 2 Rep 1 Enrichment is -0.04 log2 and the Experiment 2 Rep 2 Enrichment amounted to 0 log2.
The substance “i53 + R54T two-hybrid fusion (designed binder)” displayed an Experiment 1 Average Enrichment of 0.66 log2, an Experiment 1 Rep 1 Enrichment of 0.62 log2, an Experiment 1 Rep 2 Enrichment of 0.71 log2 and an Experiment 2 Average Enrichment of 0.7 log2. Moreover, the Experiment 2 Rep 1 Enrichment was found to be 0.76 log2 and the Experiment 2 Rep 2 Enrichment is 0.64 log2.
In the case of “i53 + R74C two-hybrid fusion (designed binder)”, the Experiment 1 Average Enrichment was 0.81 log2, the Experiment 1 Rep 1 Enrichment stood at 0.64 log2, the Experiment 1 Rep 2 Enrichment is 0.99 log2 and the Experiment 2 Average Enrichment was 0.65 log2. In addition, the Experiment 2 Rep 1 Enrichment came to 0.68 log2 and the Experiment 2 Rep 2 Enrichment was found to be 0.63 log2.
For “i53 + R74E two-hybrid fusion (designed binder)”, the Experiment 1 Average Enrichment was 0.38 log2, the Experiment 1 Rep 1 Enrichment turned out to be 0.53 log2, the Experiment 1 Rep 2 Enrichment was 0.23 log2 and the Experiment 2 Average Enrichment was -0.1 log2. Further, the Experiment 2 Rep 1 Enrichment is 0.14 log2 and the Experiment 2 Rep 2 Enrichment was -0.35 log2.
Regarding “i53 + R74I two-hybrid fusion (designed binder)”, the Experiment 1 Average Enrichment stood at 0.83 log2, the Experiment 1 Rep 1 Enrichment turned out to be 0.84 log2, the Experiment 1 Rep 2 Enrichment came to 0.83 log2 and the Experiment 2 Average Enrichment worked out at 0.61 log2. The substance also registered an Experiment 2 Rep 1 Enrichment of 0.63 log2 and an Experiment 2 Rep 2 Enrichment of 0.58 log2.
The substance “i53 + R74K two-hybrid fusion (designed binder)” displayed an Experiment 1 Average Enrichment of 0.12 log2, an Experiment 1 Rep 1 Enrichment of 0.04 log2, an Experiment 1 Rep 2 Enrichment of 0.21 log2 and an Experiment 2 Average Enrichment of 0.13 log2. For the same substance, the Experiment 2 Rep 1 Enrichment was 0.1 log2 and the Experiment 2 Rep 2 Enrichment was 0.17 log2.
Turning to “i53 + R74L two-hybrid fusion (designed binder)”, the Experiment 1 Average Enrichment is 1.11 log2, the Experiment 1 Rep 1 Enrichment came out at 1.35 log2, the Experiment 1 Rep 2 Enrichment amounted to 0.88 log2 and the Experiment 2 Average Enrichment turned out to be 0.85 log2. The substance also had an Experiment 2 Rep 1 Enrichment of 0.95 log2 and an Experiment 2 Rep 2 Enrichment of 0.76 log2.
On to “i53 + R74M two-hybrid fusion (designed binder)”, for which the Experiment 1 Average Enrichment was determined as 1.04 log2, the Experiment 1 Rep 1 Enrichment was 1.16 log2, the Experiment 1 Rep 2 Enrichment was found to be 0.91 log2 and the Experiment 2 Average Enrichment came out at 0.68 log2. This substance gave an Experiment 2 Rep 1 Enrichment of 0.68 log2 and an Experiment 2 Rep 2 Enrichment of 0.68 log2.
Regarding “i53 + R74Q two-hybrid fusion (designed binder)”, the Experiment 1 Average Enrichment was determined as 2.29 log2, the Experiment 1 Rep 1 Enrichment was 2.6 log2, the Experiment 1 Rep 2 Enrichment came out at 1.98 log2 and the Experiment 2 Average Enrichment was 1.54 log2. Also, the Experiment 2 Rep 1 Enrichment was determined as 1.56 log2 and the Experiment 2 Rep 2 Enrichment is 1.52 log2.
As to “i53 + R74T two-hybrid fusion (designed binder)”, the Experiment 1 Average Enrichment worked out at 0.33 log2, the Experiment 1 Rep 1 Enrichment was 0.4 log2, the Experiment 1 Rep 2 Enrichment is 0.26 log2 and the Experiment 2 Average Enrichment came to 0.31 log2. Also, the Experiment 2 Rep 1 Enrichment worked out at 0.25 log2 and the Experiment 2 Rep 2 Enrichment amounted to 0.38 log2.
As for “i53 + R74V two-hybrid fusion (designed binder)”, the Experiment 1 Average Enrichment worked out at 1.51 log2, the Experiment 1 Rep 1 Enrichment turned out to be 1.58 log2, the Experiment 1 Rep 2 Enrichment is 1.44 log2 and the Experiment 2 Average Enrichment is 0.95 log2. Also, the Experiment 2 Rep 1 Enrichment stood at 1.19 log2 and the Experiment 2 Rep 2 Enrichment was found to be 0.7 log2.
With “i53 + S20A two-hybrid fusion (designed binder)”, the Experiment 1 Average Enrichment came to 0.14 log2, the Experiment 1 Rep 1 Enrichment was 0.3 log2, the Experiment 1 Rep 2 Enrichment is -0.02 log2 and the Experiment 2 Average Enrichment is -0.26 log2. Further, the Experiment 2 Rep 1 Enrichment was -0.26 log2 and the Experiment 2 Rep 2 Enrichment was -0.25 log2.
Take “i53 + S20C two-hybrid fusion (designed binder)”: the Experiment 1 Average Enrichment was -0.08 log2, the Experiment 1 Rep 1 Enrichment is -0.36 log2, the Experiment 1 Rep 2 Enrichment was 0.2 log2 and the Experiment 2 Average Enrichment was determined as 0.05 log2. Moreover, the Experiment 2 Rep 1 Enrichment was -0.1 log2 and the Experiment 2 Rep 2 Enrichment worked out at 0.21 log2.
Consider “i53 + S20D two-hybrid fusion (designed binder)”, for which the Experiment 1 Average Enrichment is -0.43 log2, the Experiment 1 Rep 1 Enrichment is -0.14 log2, the Experiment 1 Rep 2 Enrichment is -0.72 log2 and the Experiment 2 Average Enrichment was determined as 0.5 log2. This substance gave an Experiment 2 Rep 1 Enrichment of 0.83 log2 and an Experiment 2 Rep 2 Enrichment of 0.18 log2.
Regarding “i53 + S20N two-hybrid fusion (designed binder)”, the Experiment 1 Average Enrichment worked out at 0.31 log2, the Experiment 1 Rep 1 Enrichment came to 0 log2, the Experiment 1 Rep 2 Enrichment was found to be 0.61 log2 and the Experiment 2 Average Enrichment is -0.25 log2. For the same substance, the Experiment 2 Rep 1 Enrichment amounted to 0.12 log2 and the Experiment 2 Rep 2 Enrichment was -0.61 log2.
